The test system of test [1] is human submandibular ductal ('HSG') cells. The test can be described thus: HSG ductal cell number in serum-free medium after four days. Type of test: cell-based. To be noted: BSA 10 ng/ml control. The procedure: FIGS. 2A and 2B represent lacritin-induced proliferation and tyrosine phosphorylation. FIG. 2A is a graphic representation of the number of human salivary gland (HSG) cells was determined four days after administering various amounts of lacritin (0 to 10 ng/ml of lacritin) to HSG cells in serum-free medium. FIG. 2B is a bar graph representing the proliferation of HSG cells upon administration of BSA (lane 1; 10 ng/ml) or serum (lane 2; 10%) was added for the same period of time. All experiments were performed on laminin-1-(0.05 μM) coated wells.
Quiescent human submandibular ductal (‘HSG’) cells were cultured in serum-free media containing increasing amounts of lacritin and cell proliferation was studied.

For a further test, the system named is 48 kDa band in HSG cells. Description: Tyrosine phosphorylation of 48 kDa band, HSG cells. In kind it is cell-based, human. The procedure:
Freshly isolated rat lacrimal acinar cells, and HSG (human salivary gland) ductal and HCE (human corneal epithelial) cell lines were used to study lacritin function. For secretion studies, rat acinar cells were plated serum-free overnight on wells co-coated with 0.05 μM laminin 1 (to ensure adhesion) and 0 to 20 μM lacritin, or alternatively with laminin-1 (0.05 μM) and treated the next day with serum-free medium containing 0 to 162 ng/ml of soluble lacritin for four hours. Unstimulated and stimulated (carbachol 10^−4 M/VIP 10^−8 M) secretions were then collected, assessed (peroxidase assay) and normalized to μg cellular DNA. To study tyrosine phosphorylation, overnight serum-free cultures of both rat lacrimal acinar and HSG cells were washed and treated with 10 ng/ml of soluble lacritin for 0.5, 2.5, 10, and 30 minutes. Py(20) anti-phosphotyrosine antibody immunoprecipitation of cell lysates was then examined in Western blots of 7% SDS PAGE gels using Py(20) and ECL for detection. […] Using an inverted Zeiss 510 LSM for visualization, 50 second baseline images were first recorded. While the laser was running, lacritin was added (final concentration 4 and 40 ng/ml) and the response continually monitored every 786 msec for a minimum of 200 sec.

The test system of test [2] is human epidermal (A431) cells. Description: 3H-thymidine uptake mitogenesis assay. In kind it is cell-based.
Test [3] concerns human glioma (U-1242-MG) cells. The test can be described thus: 3H-thymidine uptake mitogenesis assay. Type of test: cell-based. To be noted: even at higher doses.
The test system of test [4] is human glioma (U-251-MG) cells. The test can be described thus: 3H-thymidine uptake mitogenesis assay. In kind it is cell-based. The settings on record: even at higher doses.
Test [5] concerns mouse fibroblast (NIH/3T3) cells. The test can be described thus: 3H-thymidine uptake mitogenesis assay. Type of test: cell-based.
The subject of a further test is PLD. Description: Endogenous PLD activity in HSG cells. Type of test: cell-based, human. To be noted: bell-shaped activation curve. The method, then:
We measured endogenous PLD activity after lacritin addition and obtained a bell-shaped activation curve that was optimal at 10 nM lacritin, thus recapitulating the same dose dependency observed for mitogenesis, PKCα translocation and PKCα dephosphorylation. To determine whether PKCα was upstream of PLD in lacritin signaling, cells were transfected with D7 siRNA. […] Transiently hypophosphorylated perinuclear Golgi PKCα appears to have at least two roles. It complexes with PLCγ2 leading to IP3 generation and calcium mobilization. It also activates PLD1.

B1: lacritin: recombinant human lacritin from E. coli; mature 119 residue fragment (SEQ ID NO:10) of native lacritin SEQ ID NO:4 (protein, listed as Homo sapiens)
chain: EDASSDSTGADPAQEAGTSKPNEEISGPAEPASPPETTTTAQETSAAAVQGTAKVTSSRQELNPLKSIVEKSILLTEQALAKAGKGMHGGVPGGKQFIENGSEFAQKLLKKFSLLKPWA
In the case of B1, the “ductal cell number relative to BSA negative control” value in test [1] is given as “more than twofold”. In addition, the “tyrosine phosphorylation of a 48 kDa band” value with 48 kDa band in HSG cells is reported as “promoted the transient tyrosine phosphorylation”. Moreover, the mitogenesis result in test [2], in test [3], in test [4] and in test [5] was “not mitogenic” throughout. Also, the “concentration of optimal PLD activation” value with PLD was 10 nM.

The values above are taken from US7648964B2, “Use of lacritin in promoting ocular cell survival” (University of Virginia Patent Foundation, priority 2004, dated 2010).
